Results as given in patent US20240084023A1 (NGM BIOPHARMACEUTICALS, published 2024).

Experiments:
[1] = target: full-length human GCGR on CHO cells (human, UniProt P47871 26-477); test: cell-based or functional assay
[2] = target: T1, soluble human GCGR extracellular domain (human, UniProt P47871 26-136, limits assumed); test: Biacore SPR, captured antibody, soluble human GCGR extracellular domain as analyte
T1 construct: also called soluble GCGR
Description: In some experiments, supernatants were screened for binding to human GCGR using a Biacore SPR system. Briefly, anti-mouse Fc antibody (Sigma-Aldrich) was immobilized on all four flow cells of a CM5 chip using amine coupling reagents (GE Healthcare LifeSciences). Hybridoma supernatants were diluted three-fold with PBS-P buffer (PBS containing 0.005% P20) and injected for 30 seconds overflow cells 2, 3 and 4 to capture the test antibodies and using flow cell 1 as a reference. The next step was an injection of soluble human GCGR extracellular domain (100 nM in PBS-P buffer) at a flow rate of 50 μL/min and monitoring of the binding kinetics at 25° C. Kinetic data were collected over time and fit using the simultaneous global fit equation to yield affinity constants (KD values) for each antibody.

[3] = target: T1, soluble human GCGR extracellular domain; test: Octet epitope binning; antibody in solution on GCGR ECD held by immobilized 1A2 (competitor)
Description: (§1) KD values for exemplary antibodies were derived using ForteBio software. Exemplary antibodies 6B5, 13G19, 14E9, 14F4, 4F8, 1G7, l A8, I H7, 1A2, 1B4, 1C1, 1H2, 1C3, and 1D2 were immobilized on biosensor tips. Soluble human GCGR extracellular domain (500 nM) was incubated with the antibodies for 3 minutes. […] The biosensor tips with bound antibody-GCGR complex were then dipped in 61B5, 5B11, or 3H-15 antibody solution and the change in signal measured as a nm shift. If the antibody in solution recognized the same epitope as the antibody immobilized on the chip surface, then <0.1 nm shift in signal (noise level of Octet) would be observed. If the antibody in solution recognized a distinct epitope relative to the immobilized antibody, an increase in signal of >0.15 nm shift would be observed. In the latter scenario, the antibody in solution could bind to the immobilized antibody-GCGR complex (presumably to a different epitope) resulting in the observed increase in signal.

[4] = target: T1, soluble human GCGR extracellular domain; test: Octet epitope binning; antibody in solution on GCGR ECD held by immobilized 1A8 (competitor)
Description: as §1

[5] = target: T1, soluble human GCGR extracellular domain; test: Octet epitope binning; antibody in solution on GCGR ECD held by immobilized 1B4 (competitor)
Description: as §1

[6] = target: T1, soluble human GCGR extracellular domain; test: Octet epitope binning; antibody in solution on GCGR ECD held by immobilized 1C1 (competitor)
Description: as §1

[7] = target: T1, soluble human GCGR extracellular domain; test: Octet epitope binning; antibody in solution on GCGR ECD held by immobilized 1C3 (competitor)
Description: as §1

[8] = target: T1, soluble human GCGR extracellular domain; test: Octet epitope binning; antibody in solution on GCGR ECD held by immobilized 1D2 (competitor)
Description: as §1

[9] = target: T1, soluble human GCGR extracellular domain; test: Octet epitope binning; antibody in solution on GCGR ECD held by immobilized 1G7 (competitor)
Description: as §1

[10] = target: T1, soluble human GCGR extracellular domain; test: Octet epitope binning; antibody in solution on GCGR ECD held by immobilized 1H2 (competitor)
Description: as §1

[11] = target: T1, soluble human GCGR extracellular domain; test: Octet epitope binning; antibody in solution on GCGR ECD held by immobilized 1H7 (competitor)
Description: as §1

[12] = target: T1, soluble human GCGR extracellular domain; test: Octet epitope binning; antibody in solution on GCGR ECD held by immobilized 4F8 (competitor)
Description: as §1

[13] = target: T1, soluble human GCGR extracellular domain; test: Octet epitope binning; antibody in solution on GCGR ECD held by immobilized 6B5 (competitor)
Description: as §1

[14] = target: T1, soluble human GCGR extracellular domain; test: Octet epitope binning; antibody in solution on GCGR ECD held by immobilized 13G9 (competitor)
Description: as §1

[15] = target: T1, soluble human GCGR extracellular domain; test: Octet epitope binning; antibody in solution on GCGR ECD held by immobilized 14E9 (competitor)
Description: as §1

[16] = target: T1, soluble human GCGR extracellular domain; test: Octet epitope binning; antibody in solution on GCGR ECD held by immobilized 14F4 (competitor)
Description: as §1

T1 sequence (P47871 26-136 limits assumed): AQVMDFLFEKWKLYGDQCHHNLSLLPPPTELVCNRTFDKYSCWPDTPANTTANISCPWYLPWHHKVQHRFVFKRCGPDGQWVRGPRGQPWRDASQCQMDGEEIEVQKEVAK
Sequence of full-length human GCGR on CHO cells (P47871 26-477): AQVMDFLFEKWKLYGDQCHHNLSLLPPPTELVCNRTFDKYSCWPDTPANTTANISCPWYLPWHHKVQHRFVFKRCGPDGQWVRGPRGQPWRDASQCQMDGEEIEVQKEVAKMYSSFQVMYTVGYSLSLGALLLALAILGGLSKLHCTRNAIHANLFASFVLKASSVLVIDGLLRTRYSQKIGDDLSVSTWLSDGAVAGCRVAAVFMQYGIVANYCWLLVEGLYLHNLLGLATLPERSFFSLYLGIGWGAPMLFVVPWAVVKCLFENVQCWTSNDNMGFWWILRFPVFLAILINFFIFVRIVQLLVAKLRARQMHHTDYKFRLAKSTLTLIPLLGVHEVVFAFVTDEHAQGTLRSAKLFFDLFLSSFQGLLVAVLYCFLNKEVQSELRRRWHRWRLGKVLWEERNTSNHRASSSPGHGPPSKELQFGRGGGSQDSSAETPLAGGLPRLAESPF

B1: anti-GCGR antibody 6B5 (antibody, V domains shown)
VH: QVQLQQSGTELVRPGTSVKISCKASGFTFTNHWLGWVKQRPGHGLEWIGDIYPGGYYINYNEKFKGKATLTADTSSSTAYMQLSSLTSEDSAVYFCARHTNYGSDYWGQGTTLTVSS
VL: DVLMTQIPLSLPVSLGDQASISCRSSQSIVDSYGNTFLEWYLQKPGQSPKLLIYKVSNRLSGVPDRFSGTGAGTDFTLKISRVEAEDLGIYYCFQGSHVPWTFGGGTKLEIK
notes: mouse hybridoma monoclonal antibody; also called 61B5
In the case of B1, the “cAMP assay-1 IC50” value [1] is reported as 6.42 nM, the “cAMP assay-2 IC50” value [1] is reported as 12.3 nM and the “cAMP assay-3 IC50” value [1] is reported as 2.07 nM. For the same binder, the Kd [2] was 0.22 nM, the “Shift on Octet by Antibody in Solution (nm)” value (from here on “Shift on Octet by Antibody”) [3] was < 0.05 nm and the “Shift on Octet by Antibody” value [4] was < 0.05 nm. For the same binder, the “Shift on Octet by Antibody” value [5] was < 0.05 nm, the “Shift on Octet by Antibody” value [6] was < 0.05 nm and the “Shift on Octet by Antibody” value [7] was < 0.05 nm. For the same binder, the “Shift on Octet by Antibody” value [8] was < 0.05 nm, the “Shift on Octet by Antibody” value [9] was < 0.05 nm and the “Shift on Octet by Antibody” value [10] was < 0.05 nm. For the same binder, the “Shift on Octet by Antibody” value [11] was < 0.05 nm, the “Shift on Octet by Antibody” value [12] was < 0.05 nm and the “Shift on Octet by Antibody” value [13] was < 0.05 nm. For the same binder, the “Shift on Octet by Antibody” value [14] was < 0.05 nm, the “Shift on Octet by Antibody” value [15] was < 0.05 nm and the “Shift on Octet by Antibody” value [16] was < 0.05 nm.

B2: anti-GCGR antibody 1H2 (antibody, V domains shown)
VH: QVQLQQPGAELVKPGASVKMSCKVSGYTFTSYWITWVKQRPGQGLEWIGDIHPGGGDTNYNKKFKSKATLTVDTSSSTAYMQLSSLTSEDSAVYHCTSDDNYVGFTYWGQGTLVTVSA
VL: DVLMTQTPLSLPVSLGDQASISCRSSQTIIHSDGNTYLEWYLQKPGQSPILLIYKVSNRFSGVPDRFSGSGSGTDFTLKISRVEAEDLGVYYCFQGSHVPWTFGGGTKLEIK
notes: mouse hybridoma monoclonal antibody
For B2, the “cAMP assay-1 IC50” value [1] was 3.78 nM and the Kd [2] was 3.7 nM.

B3: anti-GCGR antibody 1C3 (antibody, V domains shown)
VH: EVQLQQSGPELVKPGASVKMSCKASGYTFTSSVMHWVKQKPGQALEWIGYINPYNDGTKYNENFKGKATLTSDRSSTTAYMELSSLTSEDSAVYYCVTGAGYDRGPMAMDYWGQGTSVTVSS
VL: NIVLTQSPASLAVSLGQRATISCRASESVDSYGDSFVHWYQQKPGQPPKLLIYFASNLESGVPARFSGSGSRTDFTLTIDPVEADDTATYYCQQNNEVPFTFGSGTKLELK
notes: as for B2
In the case of B3, the “cAMP assay-1 IC50” value [1] is reported as 6.42 nM, the “cAMP assay-2 IC50” value [1] is reported as 13.6 nM and the Kd [2] is reported as 1.4 nM.

B4: anti-GCGR antibody 13G9 (antibody, V domains shown)
VH: QVQLQQSGAELVRPGTSVKISCKASGYTFTNYWLGWVKQRPGHGLEWIGDIYPGGDYNNYNGKFKGKATLTADTSSSTAYIQLSSLTSEDSAVYFCVRSDDGYSWGQGTTLTVSS
VL: DVLMTQTPLSLPVSLGDQASISCRSSQSIVDSYGNTYLEWYQQKPGQSPTLLIYKVSNRFAGVPDRFSGSGSGTDFTLKISRVEAEDLGVYYCFQGSHIPWTFGGGTKVEIK
notes: mouse hybridoma monoclonal antibody; also called 13G19
For B4, the “cAMP assay-1 IC50” value [1] was 7.22 nM, the “cAMP assay-3 IC50” value [1] was 0.99 nM and the Kd [2] was 0.25 nM.

B5: anti-GCGR antibody 14E9 (antibody, V domains shown)
VH: QVQLQQSGAELVRPGTSVKMSCKAAGYTFTNYWIGWVKQRPGHGLEWIGDISPGNYYTNYNAKFKDKVSLTADTSSSTAYMQLSSLTSEDSAIYYCARYDEFAYWGQGTLVTVSA
VL: DVLMTQTPLSLSVSLGDQASISCRSSQSIVHSDGNTYLEWYLQKPGQSPKLLIYKVSNRFSGVPDRFSGSGSGTDFTLKISRVEAEDLGVYYCFQGSHVPWTFGGGTKLEIK
notes: mouse hybridoma monoclonal antibody; also called 13E9
B5 was tested, and the “cAMP assay-1 IC50” value [1] was 24.6 nM, the “cAMP assay-3 IC50” value [1] was 1.32 nM and the Kd [2] was 0.8 nM.

B6: anti-GCGR antibody 14F4 (antibody, V domains shown)
VH: QVQLQQSGAELVRPGTSVNMSCKATGYTFTNYWIGWVKQRPGHGLEWIGDIFPGGFYSNYNEKFKGKATLTTDTSSSTGYMQLSSLTSEDSAIYYCARIWDRGFDYWGQGTTLTVSS
VL: DVLMTQSPLSLPVSLGDQASISCRSSQSIVDSYGNTYLEWYLQKPGQSPKLLIYKVSNRFSGVPDRFSGSGSGTDFTLKISRVEAEDRGLYYCFQGSHVPYTFGGGTKLEIK
notes: mouse hybridoma monoclonal antibody; also called 141F4
B6 was tested, and the “cAMP assay-1 IC50” value [1] was 16 nM, the “cAMP assay-3 IC50” value [1] was 6.48 nM and the Kd [2] was 0.57 nM.

B7: anti-GCGR antibody 4F8 (antibody, V domains shown)
VH: QVQLQQSGAELVRPGTSVTMSCKAAGYTFSNYWIGWVKQRPGHGLEWIGDIYPGGFYDNYNDKFKGKATLTTDTSSSTAYMQLSSLTSEDSAIYYCTRSGGLPGAGFTYWGQGTLVTVSA
VL: DVLMTQTPLSLPVSLGDQASISCRSSQHIVYSDGNTYLEWYLQKPGQSPKLLIYKVSNRFSGVPDRFSGSGSGTDFTLEISRVEAEDLGVYYCFQGSHVPWTFGGGTKLEIK
notes: as for B2
In the case of B7, the “cAMP assay-3 IC50” value [1] is reported as 3.84 nM and the Kd [2] is reported as 0.5 nM.

B8: anti-GCGR antibody 5B11 (antibody, V domains shown)
VH: QVQLQQSGAELVKPGASVKLSCKASGNTFTSHWMHWVKQRPGQGLEWIGMSHPNSGSSNYSGKFKSKATLTVDRSSSTAYMQLNSLTSEDSAVYYCARTDYDYDGDYWGQGTTLTVSS
VL: DVVLTQTPLSLPVNIGDQASISCKSSKSLLNSDGLTYLDWYLQKPGQSPQLLIYLVSNRFSGVPDRFSGSGSGTDFTLKISRVEADDLGVYYCFQSNFLPLTFGAGTKLELK
notes: as for B2
With B8 the “cAMP assay-1 IC50” value [1] was 7.22 nM, the Kd [2] was 1.2 nM and the “Shift on Octet by Antibody” value [3] was < 0.05 nm. For the same binder, the “Shift on Octet by Antibody” value [4] was < 0.05 nm, the “Shift on Octet by Antibody” value [5] was < 0.05 nm and the “Shift on Octet by Antibody” value [6] was < 0.05 nm. The “Shift on Octet by Antibody” value [7] was < 0.05 nm, the “Shift on Octet by Antibody” value [8] was < 0.05 nm and the “Shift on Octet by Antibody” value [9] was < 0.05 nm. For the same binder, the “Shift on Octet by Antibody” value [10] was < 0.05 nm, the “Shift on Octet by Antibody” value [11] was < 0.05 nm and the “Shift on Octet by Antibody” value [12] was < 0.05 nm. The “Shift on Octet by Antibody” value [13] was < 0.05 nm, the “Shift on Octet by Antibody” value [14] was < 0.05 nm and the “Shift on Octet by Antibody” value [15] was < 0.05 nm. The “Shift on Octet by Antibody” value [16] was < 0.05 nm.

B9: anti-GCGR antibody 1C1 (antibody, V domains shown)
VH: EVQLQQSGPELVKPGATVKMSCKASGYTFTRNVIHWVKQKPGQGLEWIGYINPYNDGAKYNAKFKGKATVTSDKSSSTAYMELSSLTSEDSAVYYCARWGNYEDFAMDYWGQGTSVTVSS
VL: NIVLTQSPPSLAVSLGQRATISCRASESVDIYGNSYMHWYQQKPGQPPKLLIYLASNLESGVPARFSGSGSRTEFSLTIDPVEAGDAATYYCQQNNEDPFTFGGGTKLEIK
notes: as for B2
With B9 the “cAMP assay-2 IC50” value [1] was 14.3 nM and the Kd [2] was 1.9 nM.
